Test results as given in publication PMC6779417.

Biological target: 70S ribosome (Escherichia coli MRE600), translating on an mRNA hairpin (Escherichia coli MRE600)
Experiment: single-molecule fluorescence with optical tweezers

An EF-G residence time on the ribosome before hairpin unwinding (tau unwinding) of 0.25 s was found for “Cy3-labeled EF-G (S73C EF-G labeled with Cy3-monomaleimide) (from UniProt P0A6M8 1-704) (enzyme)” in this work.
